Experimental data published in the supplement of paper PMC10567573.

B1: FAM189A2 (parent)
chain: GSEAAVIPLDLGCTQVTQDGDIPN

Variants of: B1
Assay: protein stability index of a GFP-peptide fusion (GPS, HEK-293T) (PSI 1-6); higher = more stable
Conditions: c terminus: a fixed tail appended
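Also: lentivirally expressed fusions sorted by FACS into six bins by GFP to DsRed ratio, PSI derived from sequencing read proportions per bin multiplied by bin number.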

Protein stability index, by site and new letter:
D19: Y 4.47; W 4.37; A 5.36; F 4.46; I 4.3; N 4.8; E 5.34; R 4.57; Q 5.12; K 5.19; P 5.06; H 4.91; C 4.4; L 4.78; G 5.24; S 4.62; T 5.25; M 4.61; V 4.77
Q15: L 4.12; H 5.51; N 5.75; T 5.24; V 5.12; Y 4.5; D 5.23; I 4.72; M 5.27; K 5.16; G 5.46; F 4.8; C 5.31; W 4.11; E 5.77; A 5.45; R 4.17; S 5.4; P 5.33
V16: G 5.14; N 5.62; Q 4.61; M 4.6; S 4.88; L 5.06; D 5.66; E 4.98; I 5.26; T 5.53; R 5; Y 5.05; C 5.31; A 4.95; K 5.09; F 5.1; W 4.67; P 5.52; H 5.22
D21: E 5.03; L 4.52; P 4.77; Y 4.46; R 4.69; V 4.94; I 4.45; M 4.05; A 5.07; S 4.97; W 3.76; K 5.48; F 3.95; Q 4.92; C 4.71; T 4.97; N 4.77; H 4.38; G 5.27
T14: Y 5.09; I 4.99; S 5.27; P 5.49; K 5.46; W 4.16; N 5.31; R 4.41; G 5.17; Q 5.57; L 5.17; V 5.31; M 4.86; F 3.97; H 4.91
I22: R 5.22; H 5.37; N 5.25; G 5.26; W 5.34; A 5.72; L 5.39; T 5.58; M 5.08; S 5.64; Y 5.26; C 5.67; E 5.53; F 5.15; Q 5.31; K 5.65; V 5.54; P 5.37; D 5.64
Q18: P 5.18; R 5.09; D 5.63; Y 4.61; F 4.26; I 4.62; S 5.54; H 5.22; N 4.68; W 4.67; T 5.02; A 5.46; G 5.49; K 5.17; E 5.38; C 5.27; L 5.25; V 4.92; M 4.83
T17: K 5.4; V 5.37; C 5.19; D 5.46; P 5.44; S 5.5; I 4.75; G 5; R 5.18; L 4.88; M 5.14; A 5.21; E 5.68; Y 4.87; N 5.19; Q 5.24; F 5; W 4.69; H 5.17
G20: Y 5.09; T 5.41; S 5.32; H 5.53; C 5.3; L 5.04; W 4.73; N 5.31; P 4.97; Q 4.75; F 4.18; K 5.28; V 4.97; R 4.89; E 5.62; I 5.29; D 5.56; A 5.24; M 4.83
